Measured values published in publication PMC6641176 (ACS Omega, 2017).

How the values were obtained:
[1] = biological target: the molecule itself; test: SDS-PAGE and western blot
SEC = biological target: the molecule itself; test: SEC

| Protein | stoichiometry N [1] | stoichiometry N (SEC) |
| --- | --- | --- |
| AqpZ-C20S (Escherichia coli aquaporin Z, C20S mutant) (natural protein) MFRKLAAECFGTFWLVFGGSGSAVLAAGFPELGIGFAGVALAFGLTVLTMAFAVGHISGGHFNPAVTIGLWAGGRFPAKEVVGYVIAQVVGGIVAAALLYLIASGKTGFDAAASGFASNGYGEHSPGGYSMLSALVVELVLSAGFLLVIHGATDKFAPAGFAPIAIGLALTLIHLISIPVTNTSVNPARSTAVAIFQGGWALEQLWFFWVVPIVGGIIGGLIYRTLLEKRD | 4 | – |
| AqpZ-G144F (in the AqpZ-C20S background) (natural protein, Escherichia coli) MFRKLAAECFGTFWLVFGGSGSAVLAAGFPELGIGFAGVALAFGLTVLTMAFAVGHISGGHFNPAVTIGLWAGGRFPAKEVVGYVIAQVVGGIVAAALLYLIASGKTGFDAAASGFASNGYGEHSPGGYSMLSALVVELVLSAFFLLVIHGATDKFAPAGFAPIAIGLALTLIHLISIPVTNTSVNPARSTAVAIFQGGWALEQLWFFWVVPIVGGIIGGLIYRTLLEKRD | – | 4 |
| AqpZ-I176G (in the AqpZ-C20S background) (natural protein, Escherichia coli) MFRKLAAECFGTFWLVFGGSGSAVLAAGFPELGIGFAGVALAFGLTVLTMAFAVGHISGGHFNPAVTIGLWAGGRFPAKEVVGYVIAQVVGGIVAAALLYLIASGKTGFDAAASGFASNGYGEHSPGGYSMLSALVVELVLSAGFLLVIHGATDKFAPAGFAPIAIGLALTLIHLGSIPVTNTSVNPARSTAVAIFQGGWALEQLWFFWVVPIVGGIIGGLIYRTLLEKRD | – | 4 |
